Experimental data: patent publication US20260139035A1

Target: spike proteins of SARS-CoV-2 variants (614G, Alpha, Beta, Gamma, Delta, Kappa, Lambda, Mu, BA.1, BA.)
Assay: cell-based or functional assay

B1: 3-1 antibody (antibody, V domains shown)
VH: EVQLVQSGAEVKKPGESLKISCKGSGYIFTNYWIGWVRQMPGKGLEWMGIINPRDSDTRYSPSFQGQVTISTDKSINTAYLQWSSLKASDTAMYYCARQQGGFGDLGAYNWFDPWGQGTLVTVSS
VL: not shown
IC50, pseudovirus neutralization: < 0.25 µg/mL
